Data: publication PMC7550718

Key:
SHP1 R136Q (human) = SHP1 R136Q (human) (UniProt P29350)
[1] = biological target: Full length wild type SHP1 (human) (UniProt P29350)
SHP1 R30Q R136Q (human) = SHP1 R30Q R136Q (human) (UniProt P29350)
SHP1 R30Q (human) = SHP1 R30Q (human) (UniProt P29350)

“SIRPα di-phosphopeptide corresponding to residues 427 to 460 of human SIRPα (H2N-ITpYADLNLP-PEG8-HTEpYASIQTSK-NH2)” was tested, and the increase of phosphatase activity on DiFMUP with 0 to 3,000 nM SIRPα peptide (fold at 3 μM) (SHP1 R136Q (human)) was 3.5 fold, the increase of SHP1 phosphatase activity on DiFMUP with 0 to 3,000 nM SIRPα peptide (fold) [1] was 35 fold and the increase of phosphatase activity on DiFMUP with 0 to 3,000 nM SIRPα peptide (fold at 3 μM) (SHP1 R30Q R136Q (human)) was 1.1 fold. The increase of phosphatase activity on DiFMUP with 0 to 3,000 nM SIRPα peptide (fold at 3 μM) (SHP1 R30Q (human)) was 1.8 fold.
